Substrate in data set [1]: S=C=NCc1ccccc1
Briefly: purified protein. It counts as biochemical, Spodoptera littoralis. The settings on record: 4 mM GSH (saturating), 100 mM potassium phosphate pH 6.5, 25 °C, 2.4% acetonitrile.

Substrate in data set [2]: C=CCN=C=S
Briefly: purified protein. It counts as biochemical, Spodoptera littoralis. The settings on record: 4 mM GSH (saturating), 100 mM potassium phosphate pH 6.5, 25 °C, 2.4% acetonitrile.

B1: GSTS6 (GSTs6) (Spodoptera littoralis) (protein)
chain: MPKKLSYFNLNGLAEPIRYILHYTNQEFEDVRYDVYSWPDPKIKASLPYGQFPVYEEDGRVLTQSLAITKYVARGTDLVPTDPWDNAFIESVIFSIMDYWKNVVPTVREPDPAKYTELRNEIIEKNIPYYFSRFNKHLEDNGGFLNGKLSWGDFVFCGVIEASDMFLGIELSKDYPAVGSLVQHIRNLPGVKEYVKSIGPYTIDLARFKYKK
notes: cytosolic sigma class
On to B1, for which, in the data set “purified protein [1]”, the Km is 98.24 ± 21.15 µM, the Vmax came to 52.7 µmol/min/mg, the kcat was 21.6 ± 1.46 s⁻¹ and the kcat/Km came out at 220000 ± 14900 M⁻¹ s⁻¹. Further, in “purified protein [2]”, the Km worked out at 567.11 ± 131.85 µM, the Vmax was 39.3 µmol/min/mg, the kcat was found to be 16.1 ± 2.28 s⁻¹ and the kcat/Km stood at 28400 ± 4020 M⁻¹ s⁻¹.

B2: GSTE14 (GSTe14) (Spodoptera littoralis) (protein)
chain: MGVKLYVMDFSPPSRACMLTCEIFGIPFEKIPVDLFKGEHLAPNYLQKNPLHTIPVLEDGDLILYDSHAIMAYLADTYGKDESWYPKDVKKRALVNQKLFFNTAVIYRRLRNITYYVFQRGRKTLEQDWLDDIAEGYGFLEAFLSKTKYIAGDHITIADIAILSHLTNLEYILPIDAKKYPKTSAWLEDFKATPYAKKHNEEGAKALNDLLKKFLTS
notes: cytosolic epsilon class
As to B2, in “purified protein [1]”, the Km amounted to 185.37 ± 89.77 µM, the Vmax stood at 47.3 µmol/min/mg, the kcat amounted to 19.8 ± 3.35 s⁻¹ and the kcat/Km worked out at 107000 ± 37300 M⁻¹ s⁻¹. For the same protein, in the data set “purified protein [2]”, the Michaelis-Menten constant (Km) came out at 124.10 ± 15.66 µM, the maximal velocity (Vmax) was 89.4 µmol/min/mg, the kcat amounted to 37.4 ± 1.85 s⁻¹ and the kcat/Km stood at 302000 ± 14900 M⁻¹ s⁻¹.

The values above are taken from PMC12174363, “Multiple glutathione-S-transferases detoxify diverse glucosinolate-based defenses of Brassicales plants in a generalist lepidopteran herbivore (Spodoptera littoralis)” (Communications Biology, 2025).
